Biological target: T1, human Y4 receptor (human, UniProt P50391 1-375)
Assay: 125I-PP displacement

T1 sequence (P50391 whole entry): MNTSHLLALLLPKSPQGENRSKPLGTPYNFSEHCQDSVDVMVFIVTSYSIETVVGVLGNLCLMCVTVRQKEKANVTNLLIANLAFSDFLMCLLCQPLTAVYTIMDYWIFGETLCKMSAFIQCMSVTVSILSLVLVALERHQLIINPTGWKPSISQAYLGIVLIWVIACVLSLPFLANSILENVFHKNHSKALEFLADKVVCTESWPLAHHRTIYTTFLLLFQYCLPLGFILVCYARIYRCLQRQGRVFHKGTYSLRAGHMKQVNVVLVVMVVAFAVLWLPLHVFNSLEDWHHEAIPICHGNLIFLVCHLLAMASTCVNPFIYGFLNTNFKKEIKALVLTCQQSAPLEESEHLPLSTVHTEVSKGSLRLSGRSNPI

Binder | IC50 [nM]
APLEPFYPGDNATPEQMAQYAAALRRYINMLTRPRY [6605] | 0.13
APLEPVYPGDNATPEQTAQYAADLRRYINTLTRPRY [6638] | 0.5
KPLEPVYPGDNATPEQMAQYAADLRRYINMLTRPRY (not fully specified; lauryl-lysine at position 1 (replaces Ala 1)) [compound of SEQ ID NO:11 (code 6435)] | 0.13
APLEPVYPGDNATPEQMAQYAADLRRYINLLTRPRY [6430] | 0.41
APLEPEYPGDNATPEQMAQYAAELRRYINMLTRPRY [6458] | 0.18
APLEPVYPGDNATPEQMAQYAADLRKYINMLTRPRY [6431] | 0.47
HAPLEPVYPGDNATPEQMAQYAADLRRYINMLTRPRY [compound of SEQ ID NO:53 (code 6650)] | 0.17
AAPLEPVYPGDNATPEQMAQYAADLRRYINLLTRPRY [6656] | 0.22
PAPLEPVYPGDNATPEQMAQYAADLRRYINMLTRPRY [compound of SEQ ID NO:56 (code 6653)] | 0.21

Biological target: T1, human Y4 receptor
Assay: 125I-PP displacement
Remark: another data set of the same source

Binder | IC50 [nM]
AAPLEPSYPGDDATPQQMAHYYSELRRYINLLTRPRY [4058082] | 0.11
PAPLEPEYPGDNATPEEMAKYAAELRRYINKLTRPRY [4058077] | 0.059
PLEPKYPGDNATPEQMAKYAAELRRYINKLTRPRY [4058158] | 0.047
HAPLEPTYPGDNATPEQMARYAAALRRYINKLTRPRY [4058069] | 0.07
HAPLEPEYPGDNATPEEMAKYAAELRRYINKLTRPRY [4058074] | 0.116
GAPLEPKYPGDNATPEQLAKYAAELRRYINKLTRPRY [4058167] | 0.06
PAPLEPKYPGDNATPEQMAKYAAELRRYINLLTRPRY [4058169] | 0.099
AAPLEPTYPGDNATPEQMARYAAALRRYINKLTRPRY [4058068] | 0.026
4058071 (protein) CAPLEPTYPGDNATPEQMARYAAALRRYINKLTRPRYCAPLEPTYPGDNATPEQMARYAAALRRYINKLTRPRY | 0.143

Biological target: T1, human Y4 receptor
Assay: 125I-PP displacement
Remark: another data set of the same source

Binder | IC50 [nM]
APLEPKYPGDNATPEELAKYAAELRRYINKLTRPRY [4058688] | 0.089
APLEPHYPGDNATPEELAKYAAELRRYINKLTRPRY [4058703] | 0.059
APLEPHYPGDNATPEEMAKYAAELRRYINKLTRPRY [4058696] | 0.045
APLEPKYPGDDATPEELAHYYSELRRYINKLTRPRY [4058707] | 0.089
HAPLEPKYPGDDATPEELAHYYSELRRYINKLTRPRY [4058710] | 0.129
AAPLEPKYPGDDATPEELAHYYSELRRYINKLTRPRY [4058708] | 0.079
PAPLEPKYPGDDATPEELAHYYSELRRYINKLTRPRY [4058709] | 0.083
PLEPEYPGDDATPQEMARYAAELRRYINKLTRPRY [4058679] | 0.078
PLEPEYPGDNATPEEMAKYAAALRRYINKLTRPRY [4058676] | 0.061
PLEPEYPGDNATPEELAKYAAELRRYINKLTRPRY [4058677] | 0.138
PLEPEYPGDNATPEEMARYAAELRRYINKLTRPRY [4058674] | 0.082
PLEPEYPGDNATPEEMAKYAADLRRYINKLTRPRY [4058675] | 0.095
PLEPEYPGDDATPEEMAKYAAELRRYINKLTRPRY [4058673] | 0.091
PAPLEPTYPGDNATPEELARYAAALRRYINKLTRPRY [4058738] | 0.055
PAPLEPKYPGDDATPQEMARYAAELRRYINKLTRPRY [4058686] | 0.076
PAPLEPEYPGDDATPQEMARYAAELRRYINKLTRPRY [4058681] | 0.087
YAPLEPEYPGDDATPQEMARYAAELRRYINKLTRPRY [4058684] | 0.087
AAPLEPEYPGDDATPQEMARYAAELRRYINKLTRPRY [4058683] | 0.081
PAPLEPHYPGDDATPEEMAKYAAELRRYINKLTRPRY [4058701] | 0.099
PAPLEPKYPGDDATPQQMAKYAAELRRYINKLTRPRY [4058670] | 0.08

Binder | IC50 [nM]
PAPLEPHYPGDDATPEELAKYAAELRRYINKLTRPRY [4058705] | 0.097
GAPLEPEYPGDDATPQEMARYAAELRRYINKLTRPRY [4058682] | 0.076
PAPLEPKYPGDNATPEELAKYAAELRRYINKLTRPRY [4058671] | 0.105
AKPLEPEYPGDDATPQEMARYAAELRRYINKLTRPRY [4058685] | 0.09
APLEPEYPGDDATPQEMARYAAELRRYINKLTRPRY [4058680] | 0.069
PLEPKYPGDNATPEELAKYAAELRRYINKLTRPRY [4058687] | 0.096
PLEPKYPGDDATPEELAHYYSELRRYINKLTRPRY [4058706] | 0.084
PLEPHYPGDNATPEELAKYAAELRRYINKLTRPRY [4058702] | 0.086
AAPLEPHYPGDNATPEEMAKYAAELRRYINKLTRPRY [4058697] | 0.095
HAPLEPHYPGDNATPEEMAKYAAELRRYINKLTRPRY [4058699] | 0.092
PAPLEPKYPGDNASPEQMAKYAAELRRYINKLTRPRY [4058669] | 0.043
HAPLEPKYPGDNATPEELAKYAAELRRYINKLTRPRY [4058692] | 0.131
AKPLEPKYPGDNATPEELAKYAAELRRYINKLTRPRY [4058690] | 0.071
PAPLEPHYPGDNATPEELAKYAAELRRYINKLTRPRY [4058678] | 0.09
GAPLEPKYPGDNATPEELAKYAAELRRYINKLTRPRY [4058691] | 0.098
AAPLEPHYPGDNATPEELAKYAAELRRYINKLTRPRY [4058704] | 0.094
PAPLEPKAPGDNATPEQMAKYAAELRRYINKLTRPRY [4058668] | 0.074
AAPLEPKYPGDNATPEELAKYAAELRRYINKLTRPRY [4058689] | 0.098
GAPLEPHYPGDNATPEEMAKYAAELRRYINKLTRPRY [4058698] | 0.072
YAPLEPKYPGDNATPEELAKYAAELRRYINKLTRPRY [4058693] | 0.077

Source: patent US20100279930A1 (published 2010)
